Numbered stars: 1 amine (or outer) side, 2 acyl side, 3 side chain; on linkers, the order of the positions; unused ones are H or OH. Bridge positions count the residues as written; N and C are the ends. Side chains are listed from the residue outwards. Ends that are not written are not given here. * marks the point of attachment. C20 diacid = O=C(O)CCCCCCCCCCCCCCCCCCC(=O)*; γGlu = O=C(O)[C@H](CCC(=O)[*:2])N[*:1]; AEEA = NCCOCCOCC(=O)O

This note sets out measurements from patent publication US20140087995A1 (published 2014).

The chains are these.
B1: N^ε-[(4S)-4-carboxy-4-(19-carboxynonadecanoylamino)butanoyl]Lys[Arg1,Arg17,Pro21,Pro27,His35]-h-amylin (peptide)
peptide: K([γGlu-C20 diacid])RCNTATCATQRLANFLRHSSPNFGAIPSSTNVGSHTY-NH2
modifications: disulfide 3-8; N-terminus assumed
SMILES: CC[C@H](C)[C@H](NC(=O)[C@H](C)NC(=O)CNC(=O)[C@H](Cc1ccccc1)NC(=O)[C@H](CC(N)=O)NC(=O)[C@@H]1CCCN1C(=O)[C@H](CO)NC(=O)[C@H](CO)NC(=O)[C@H](Cc1c[nH]cn1)NC(=O)[C@H](CCCNC(=N)N)NC(=O)[C@H](CC(C)C)NC(=O)[C@H](Cc1ccccc1)NC(=O)[C@H](CC(N)=O)NC(=O)[C@H](C)NC(=O)[C@H](CC(C)C)NC(=O)[C@H](CCCNC(=N)N)NC(=O)[C@H](CCC(N)=O)NC(=O)[C@@H](NC(=O)[C@H](C)NC(=O)[C@@H]1CSSC[C@H](NC(=O)[C@H](CCCNC(=N)N)NC(=O)[C@@H](N)CCCCNC(=O)CC[C@H](NC(=O)CCCCCCCCCCCCCCCCCCC(=O)O)C(=O)O)C(=O)N[C@@H](CC(N)=O)C(=O)N[C@@H]([C@@H](C)O)C(=O)N[C@@H](C)C(=O)N[C@@H]([C@@H](C)O)C(=O)N1)[C@@H](C)O)C(=O)N1CCC[C@H]1C(=O)N[C@@H](CO)C(=O)N[C@@H](CO)C(=O)N[C@H](C(=O)N[C@@H](CC(N)=O)C(=O)N[C@H](C(=O)NCC(=O)N[C@@H](CO)C(=O)N[C@@H](Cc1c[nH]cn1)C(=O)N[C@H](C(=O)N[C@@H](Cc1ccc(O)cc1)C(N)=O)[C@@H](C)O)C(C)C)[C@@H](C)O
notes: h-amylin derivative, N-terminally extended by one residue; disulfide bridge and C-terminal amide as told for human amylin; also called compound 44
B2: N^-1-[(4S)-4-carboxy-4-(19-carboxynonadecanoylamino)butanoyl]-Gly[Arg1,Arg17,Pro21,Pro27]-h-amylin (peptide)
peptide: {C20 diacid-γGlu}-GRCNTATCATQRLANFLRHSSPNFGAIPSSTNVGSNTY-NH2
modifications: disulfide 3-8
SMILES: CC[C@H](C)[C@H](NC(=O)[C@H](C)NC(=O)CNC(=O)[C@H](Cc1ccccc1)NC(=O)[C@H](CC(N)=O)NC(=O)[C@@H]1CCCN1C(=O)[C@H](CO)NC(=O)[C@H](CO)NC(=O)[C@H](Cc1c[nH]cn1)NC(=O)[C@H](CCCNC(=N)N)NC(=O)[C@H](CC(C)C)NC(=O)[C@H](Cc1ccccc1)NC(=O)[C@H](CC(N)=O)NC(=O)[C@H](C)NC(=O)[C@H](CC(C)C)NC(=O)[C@H](CCCNC(=N)N)NC(=O)[C@H](CCC(N)=O)NC(=O)[C@@H](NC(=O)[C@H](C)NC(=O)[C@@H]1CSSC[C@H](NC(=O)[C@H](CCCNC(=N)N)NC(=O)CNC(=O)CC[C@H](NC(=O)CCCCCCCCCCCCCCCCCCC(=O)O)C(=O)O)C(=O)N[C@@H](CC(N)=O)C(=O)N[C@@H]([C@@H](C)O)C(=O)N[C@@H](C)C(=O)N[C@@H]([C@@H](C)O)C(=O)N1)[C@@H](C)O)C(=O)N1CCC[C@H]1C(=O)N[C@@H](CO)C(=O)N[C@@H](CO)C(=O)N[C@H](C(=O)N[C@@H](CC(N)=O)C(=O)N[C@H](C(=O)NCC(=O)N[C@@H](CO)C(=O)N[C@@H](CC(N)=O)C(=O)N[C@H](C(=O)N[C@@H](Cc1ccc(O)cc1)C(N)=O)[C@@H](C)O)C(C)C)[C@@H](C)O
notes: h-amylin derivative, N-terminally extended by one residue; disulfide bridge and C-terminal amide as told for human amylin; also called compound 46
B3: N^ε1-[2-[2-[2-(19-carboxynonadecanoylamino)ethoxy]ethoxy]acetyl]-[Arg17,Pro21,Pro27]-h-amylin (peptide)
peptide: K([AEEA-C20 diacid])CNTATCATQRLANFLRHSSPNFGAIPSSTNVGSNTY-NH2
modifications: disulfide 2-7; N-terminus assumed
SMILES: CC[C@H](C)[C@H](NC(=O)[C@H](C)NC(=O)CNC(=O)[C@H](Cc1ccccc1)NC(=O)[C@H](CC(N)=O)NC(=O)[C@@H]1CCCN1C(=O)[C@H](CO)NC(=O)[C@H](CO)NC(=O)[C@H](Cc1c[nH]cn1)NC(=O)[C@H](CCCNC(=N)N)NC(=O)[C@H](CC(C)C)NC(=O)[C@H](Cc1ccccc1)NC(=O)[C@H](CC(N)=O)NC(=O)[C@H](C)NC(=O)[C@H](CC(C)C)NC(=O)[C@H](CCCNC(=N)N)NC(=O)[C@H](CCC(N)=O)NC(=O)[C@@H](NC(=O)[C@H](C)NC(=O)[C@@H]1CSSC[C@H](NC(=O)[C@@H](N)CCCCNC(=O)COCCOCCNC(=O)CCCCCCCCCCCCCCCCCCC(=O)O)C(=O)N[C@@H](CC(N)=O)C(=O)N[C@@H]([C@@H](C)O)C(=O)N[C@@H](C)C(=O)N[C@@H]([C@@H](C)O)C(=O)N1)[C@@H](C)O)C(=O)N1CCC[C@H]1C(=O)N[C@@H](CO)C(=O)N[C@@H](CO)C(=O)N[C@H](C(=O)N[C@@H](CC(N)=O)C(=O)N[C@H](C(=O)NCC(=O)N[C@@H](CO)C(=O)N[C@@H](CC(N)=O)C(=O)N[C@H](C(=O)N[C@@H](Cc1ccc(O)cc1)C(N)=O)[C@@H](C)O)C(C)C)[C@@H](C)O
notes: h-amylin derivative; disulfide bridge and C-terminal amide as told for human amylin; also called compound 43
B4: N{Alpha-1}-[(4S)-4-carboxy-4-(19-carboxynonadecanoylamino)butanoyl]-[Glu14,Arg17,Pro21,Pro27,Lys34]-h-amylin (peptide)
peptide: {C20 diacid-γGlu}-KCNTATCATQRLAEFLRHSSPNFGAIPSSTNVGKNTY-NH2
modifications: disulfide 2-7
SMILES: CC[C@H](C)[C@H](NC(=O)[C@H](C)NC(=O)CNC(=O)[C@H](Cc1ccccc1)NC(=O)[C@H](CC(N)=O)NC(=O)[C@@H]1CCCN1C(=O)[C@H](CO)NC(=O)[C@H](CO)NC(=O)[C@H](Cc1c[nH]cn1)NC(=O)[C@H](CCCNC(=N)N)NC(=O)[C@H](CC(C)C)NC(=O)[C@H](Cc1ccccc1)NC(=O)[C@H](CCC(=O)O)NC(=O)[C@H](C)NC(=O)[C@H](CC(C)C)NC(=O)[C@H](CCCNC(=N)N)NC(=O)[C@H](CCC(N)=O)NC(=O)[C@@H](NC(=O)[C@H](C)NC(=O)[C@@H]1CSSC[C@H](NC(=O)[C@H](CCCCN)NC(=O)CC[C@H](NC(=O)CCCCCCCCCCCCCCCCCCC(=O)O)C(=O)O)C(=O)N[C@@H](CC(N)=O)C(=O)N[C@@H]([C@@H](C)O)C(=O)N[C@@H](C)C(=O)N[C@@H]([C@@H](C)O)C(=O)N1)[C@@H](C)O)C(=O)N1CCC[C@H]1C(=O)N[C@@H](CO)C(=O)N[C@@H](CO)C(=O)N[C@H](C(=O)N[C@@H](CC(N)=O)C(=O)N[C@H](C(=O)NCC(=O)N[C@@H](CCCCN)C(=O)N[C@@H](CC(N)=O)C(=O)N[C@H](C(=O)N[C@@H](Cc1ccc(O)cc1)C(N)=O)[C@@H](C)O)C(C)C)[C@@H](C)O
notes: h-amylin derivative; disulfide bridge and C-terminal amide as told for human amylin; also called compound 36
B5: N^ε1-[2-[2-[2-[[(4S)-4-carboxy-4-(19-carboxynonadecanoylamino)butanoyl]amino]ethoxy]ethoxy]acetyl]-[Arg17,Pro21,Pro27]-h-amylin (peptide)
peptide: K([AEEA-γGlu-C20 diacid])CNTATCATQRLANFLRHSSPNFGAIPSSTNVGSNTY-NH2
modifications: disulfide 2-7; N-terminus assumed
SMILES: CC[C@H](C)[C@H](NC(=O)[C@H](C)NC(=O)CNC(=O)[C@H](Cc1ccccc1)NC(=O)[C@H](CC(N)=O)NC(=O)[C@@H]1CCCN1C(=O)[C@H](CO)NC(=O)[C@H](CO)NC(=O)[C@H](Cc1c[nH]cn1)NC(=O)[C@H](CCCNC(=N)N)NC(=O)[C@H](CC(C)C)NC(=O)[C@H](Cc1ccccc1)NC(=O)[C@H](CC(N)=O)NC(=O)[C@H](C)NC(=O)[C@H](CC(C)C)NC(=O)[C@H](CCCNC(=N)N)NC(=O)[C@H](CCC(N)=O)NC(=O)[C@@H](NC(=O)[C@H](C)NC(=O)[C@@H]1CSSC[C@H](NC(=O)[C@@H](N)CCCCNC(=O)COCCOCCNC(=O)CC[C@H](NC(=O)CCCCCCCCCCCCCCCCCCC(=O)O)C(=O)O)C(=O)N[C@@H](CC(N)=O)C(=O)N[C@@H]([C@@H](C)O)C(=O)N[C@@H](C)C(=O)N[C@@H]([C@@H](C)O)C(=O)N1)[C@@H](C)O)C(=O)N1CCC[C@H]1C(=O)N[C@@H](CO)C(=O)N[C@@H](CO)C(=O)N[C@H](C(=O)N[C@@H](CC(N)=O)C(=O)N[C@H](C(=O)NCC(=O)N[C@@H](CO)C(=O)N[C@@H](CC(N)=O)C(=O)N[C@H](C(=O)N[C@@H](Cc1ccc(O)cc1)C(N)=O)[C@@H](C)O)C(C)C)[C@@H](C)O
notes: h-amylin derivative; disulfide bridge and C-terminal amide as told for human amylin; also called compound 41

For the assay, the target named is T1, human calcitonin receptor (human, UniProt P30988 25-474).
T1 sequence (looked up): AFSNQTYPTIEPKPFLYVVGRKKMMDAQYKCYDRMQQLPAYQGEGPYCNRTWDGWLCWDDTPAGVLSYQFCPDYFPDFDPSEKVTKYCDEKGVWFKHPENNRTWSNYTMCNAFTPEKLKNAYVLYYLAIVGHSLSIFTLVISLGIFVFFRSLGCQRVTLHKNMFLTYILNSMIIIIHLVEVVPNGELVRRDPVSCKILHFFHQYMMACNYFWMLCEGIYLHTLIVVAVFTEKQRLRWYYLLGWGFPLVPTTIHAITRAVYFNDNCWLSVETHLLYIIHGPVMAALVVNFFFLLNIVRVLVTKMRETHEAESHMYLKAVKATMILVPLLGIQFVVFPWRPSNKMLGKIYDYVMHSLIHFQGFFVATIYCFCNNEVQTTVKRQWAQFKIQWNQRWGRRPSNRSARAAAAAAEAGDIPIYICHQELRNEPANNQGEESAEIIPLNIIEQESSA
As to the kind of experiment: cell-based or functional assay.
As to B1, the “hCTR funct. EC50” value was 4.75 nM.
Consider B2, for which the “hCTR funct. EC50” value worked out at 0.899 nM.
The result for B3 reads 0.92 nM; that for B4, 1.28 nM; that for B5, 4.35 nM.
